In US20100029568A1, “TIGHTER-BINDING C-PEPTIDE INHIBITORS OF HIV-1 ENTRY” (priority 2007, published 2010) one finds fold lower Kd than wild type C37, IC50, nM; inhibitory potency against pseudotyped HIV-1 and Kd data, which are given here for one molecule.

Experiment [1] deals with N36 (HIV-1), P04578. The experiment in a line: estimated Kd; method not stated; reference is wild type C37 on N36.
The target in experiment [2] is V549E mutant Env (Res1) from HIV-1 strain HXB2 (HIV-1 strain HXB2), P04578. In words: cell-based or functional assay.
The target of experiment [3] is Res 3 Env (N637K) from HIV-1 strain HXB2 (HIV-1 strain HXB2), P04578. In words: cell-based or functional assay.
Experiment [4] has as its target Res 2 (L33S) Env from HIV-1 strain HXB2 (HIV-1 strain HXB2), P04578. In words: cell-based or functional assay.
Experiment [5] concerns the target wild type Env (gp120/gp41) from HIV-1 strain HXB2 (HIV-1 strain HXB2), P04578. In words: cell-based or functional assay.
Experiment [6] addresses Res 4 (SDTV) Env from HIV-1 strain HXB2 (HIV-1 strain HXB2), P04578. The experiment in a line: cell-based or functional assay.
The target in experiment [7] is N36 (HIV-1), P04578. In words: estimated Kd; method not stated.

Regarding HTTWMEWDREINKYISLIHSLIEESQNQQEKNEQELL (modifications not checked) [C37-KYI], the fold lower Kd than wild type C37 in experiment [1] was over 20 fold. Besides, the IC50, nM; inhibitory potency against pseudotyped HIV-1 came to 4.2 nM in experiment [2]; 4.1 nM in experiment [3]; 1 nM in experiment [4]; 1 nM in experiment [5]; 0.6 nM in experiment [6]. Moreover, the equilibrium dissociation constant (Kd) (usually a measure of binding affinity in units of concentration) in experiment [7] was 0.04 pM.
